Biological target: T1, Sec8-His (section 8 (Sec8), an antigenic region of CSP-1, tagged with a polyhistidine (His) tag)
T1 construct: also called Sec8-His antigen
T1 chain: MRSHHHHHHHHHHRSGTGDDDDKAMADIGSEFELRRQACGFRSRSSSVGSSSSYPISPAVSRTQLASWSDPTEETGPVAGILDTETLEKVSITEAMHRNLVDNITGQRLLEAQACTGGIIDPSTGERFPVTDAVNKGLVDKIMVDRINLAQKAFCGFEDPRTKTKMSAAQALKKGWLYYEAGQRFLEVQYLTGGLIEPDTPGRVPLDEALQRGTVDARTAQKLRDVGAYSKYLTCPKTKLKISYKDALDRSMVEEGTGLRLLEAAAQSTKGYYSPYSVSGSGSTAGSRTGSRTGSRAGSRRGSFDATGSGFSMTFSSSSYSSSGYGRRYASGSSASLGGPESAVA
Assay: BLI (Octet), single shot: antibody on anti-human IgG tips, 24 nM Sec8-His
Method: After humanization, the antibodies were tested for their capability to bind to an antigenic region of CSP-1 called section 8 (Sec8). Antigen binding was assessed by single-shot Octet analysis. Antibodies were loaded onto anti-human IgG tips, and the loaded tips were dipped into wells containing the Sec8-His antigen. Scouting experiments were used to determine ideal conditions for loading (10 minute incubation in 1 μg/mL IgG) and antigen binding (5 minute incubation in 24 nM Sec8-His, followed by a 5 minute dissociation step in buffer). Two negative controls were included with each experiment. First, a tip was loaded with irrelevant IgG dipped into 24 nM Sec8-His to control for non-specific interactions between the tip and the antigen. Next, tips loaded with humanized 1D7 variants were dipped into 24 nM GST-His to control for off-target binding of the antibody (a significant risk if a given variant is destabilized and/or exposes significant hydrophobic surface). The data from the irrelevant IgG control were subtracted from the data obtained with the […]-loaded tips. The mean and standard deviation of the signal change values for the GST-His control wells were used to calculate a threshold for positive binding (mean+3 standard deviations of the GST-His signal). Variants that were below this threshold are considered to have no specific binding to Sec8.

| Binder | binding result |
| --- | --- |
| humanized anti-CSP-1 antibody, Antibody Number 22 (Table 1) (antibody, human IgG1, V domains shown, also called Antibody 22) VH: EVQLVESGGDLVKPGGSLKLSCAASGFTFSRYGMSWVRQTPDKRLEWVATISIGGTYTYYPDSMKGRFTISRDNAKNTLYLQMSSLKSEDTAMYYCARRGYGNYSYYGMDYWGQGTSVTVSS VL: DIVMTQAAFSNPVTLGTSASISCRSSKSLLHSSGITYLYWYLQKPGQSPQLLIYQMSNLASGVPDRFSSSGSGTDFTLRISRVEAEDVGVYYCAQNLELPLTFGAGTKLELK | binds |
| humanized anti-CSP-1 antibody, Antibody Number 26 (Table 1) (antibody, human IgG1, V domains shown, also called Antibody 26) VH: EVQLVESGGDLVKPGGSLKLSCAASGFTFSRYGMSWVRQTPDKRLEWVATISIGGTYTYYPDSMKGRFTISRDNAKNTLYLQMSSLKSEDTAMYYCARRGYGNYSYYGMDYWGQGTSVTVSS VL: DIVMTQAAFSNPVTLGTSASISCRSSKSLLHSEGITYLYWYLQKPGQSPQLLIYQMSNLASGVPDRFSSSGSGTDFTLRISRVEAEDVGVYYCAQNLELPLTFGAGTKLELK | binds |
| humanized anti-CSP-1 antibody, Antibody Number 29 (Table 1) (antibody, human IgG1, V domains shown, also called Antibody 29) VH: EVQLVESGGDLVKPGGSLKLSCAASGFTFSRYGMSWVRQTPDKRLEWVATISIGGTYTYYPDSMKGRFTISRDNAKNTLYLQMSSLKSEDTAMYYCARRGYGNYSYYGMDYWGQGTSVTVSS VL: DIVMTQAAFSNPVTLGTSASISCRSSKSLLHSNGITYLYWYLQKPGQSPQLLIYQISNLASGVPDRFSSSGSGTDFTLRISRVEAEDVGVYYCAQNLELPLTFGAGTKLELK | binds |
| humanized anti-CSP-1 antibody, Antibody Number 28 (Table 1) (antibody, human IgG1, V domains shown, also called Antibody 28) VH: EVQLVESGGDLVKPGGSLKLSCAASGFTFSRYGMSWVRQTPDKRLEWVATISIGGTYTYYPDSMKGRFTISRDNAKNTLYLQMSSLKSEDTAMYYCARRGYGNYSYYGMDYWGQGTSVTVSS VL: DIVMTQAAFSNPVTLGTSASISCRSSKSLLHSNGITYLYWYLQKPGQSPQLLIYQLSNLASGVPDRFSSSGSGTDFTLRISRVEAEDVGVYYCAQNLELPLTFGAGTKLELK | binds |
| humanized anti-CSP-1 antibody, Antibody Number 23 (Table 1) (antibody, human IgG1, V domains shown, also called Antibody 23) VH: EVQLVESGGDLVKPGGSLKLSCAASGFTFSRYGMSWVRQTPDKRLEWVATISIGGTYTYYPDSMKGRFTISRDNAKNTLYLQMSSLKSEDTAMYYCARRGYGNYSYYGMDYWGQGTSVTVSS VL: DIVMTQAAFSNPVTLGTSASISCRSSKSLLHSVGITYLYWYLQKPGQSPQLLIYQMSNLASGVPDRFSSSGSGTDFTLRISRVEAEDVGVYYCAQNLELPLTFGAGTKLELK | binds |
| humanized anti-CSP-1 antibody, Antibody Number 24 (Table 1) (antibody, human IgG1, V domains shown, also called Antibody 24) VH: EVQLVESGGDLVKPGGSLKLSCAASGFTFSRYGMSWVRQTPDKRLEWVATISIGGTYTYYPDSMKGRFTISRDNAKNTLYLQMSSLKSEDTAMYYCARRGYGNYSYYGMDYWGQGTSVTVSS VL: DIVMTQAAFSNPVTLGTSASISCRSSKSLLHSDGITYLYWYLQKPGQSPQLLIYQMSNLASGVPDRFSSSGSGTDFTLRISRVEAEDVGVYYCAQNLELPLTFGAGTKLELK | binds |
| humanized anti-CSP-1 antibody, Antibody Number 27 (Table 1) (antibody, human IgG1, V domains shown, also called Antibody 27) VH: EVQLVESGGDLVKPGGSLKLSCAASGFTFSRYGMSWVRQTPDKRLEWVATISIGGTYTYYPDSMKGRFTISRDNAKNTLYLQMSSLKSEDTAMYYCARRGYGNYSYYGMDYWGQGTSVTVSS VL: DIVMTQAAFSNPVTLGTSASISCRSSKSLLHSNGITYLYWYLQKPGQSPQLLIYQVSNLASGVPDRFSSSGSGTDFTLRISRVEAEDVGVYYCAQNLELPLTFGAGTKLELK | binds |
| humanized anti-CSP-1 antibody, Antibody Number 25 (Table 1) (antibody, human IgG1, V domains shown, also called Antibody 25) VH: EVQLVESGGDLVKPGGSLKLSCAASGFTFSRYGMSWVRQTPDKRLEWVATISIGGTYTYYPDSMKGRFTISRDNAKNTLYLQMSSLKSEDTAMYYCARRGYGNYSYYGMDYWGQGTSVTVSS VL: DIVMTQAAFSNPVTLGTSASISCRSSKSLLHSQGITYLYWYLQKPGQSPQLLIYQMSNLASGVPDRFSSSGSGTDFTLRISRVEAEDVGVYYCAQNLELPLTFGAGTKLELK | binds |

Reference: patent publication US20250011418A1 (ZIELBIO, published 2025)
